Measured values: patent US20020055173, “Method for preparing adenovirus vectors, vectors so prepared, and uses thereof” (published 2002)

Key:
Sp1 [1] = target: T1, Sp1 (UniProt P08047 P08047:2-785); experiment: footprint; interaction substantially blocked; settings: tags: Promega; label: 5' end label in luciferase coding region
MAZ [2] = target: T2, MAZ (UniProt P56270 P56270:1-477); experiment: footprint; interaction substantially blocked; settings: tags: prepared as in Parks and Shenk 1996; label: 5' end label in luciferase coding region
T2 sequence: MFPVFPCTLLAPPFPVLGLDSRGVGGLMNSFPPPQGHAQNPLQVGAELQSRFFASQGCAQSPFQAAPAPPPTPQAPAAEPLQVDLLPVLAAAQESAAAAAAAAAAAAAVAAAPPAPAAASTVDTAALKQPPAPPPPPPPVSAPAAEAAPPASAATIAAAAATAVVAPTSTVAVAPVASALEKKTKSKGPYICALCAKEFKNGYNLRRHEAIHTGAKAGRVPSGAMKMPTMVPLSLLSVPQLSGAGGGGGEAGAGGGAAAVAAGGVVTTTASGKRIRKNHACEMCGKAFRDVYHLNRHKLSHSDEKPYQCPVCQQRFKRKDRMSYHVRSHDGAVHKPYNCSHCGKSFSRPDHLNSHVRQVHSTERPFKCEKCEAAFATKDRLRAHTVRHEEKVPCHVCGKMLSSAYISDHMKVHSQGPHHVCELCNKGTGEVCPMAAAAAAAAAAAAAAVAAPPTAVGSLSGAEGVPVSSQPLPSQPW

MAZ [3] = target: T2, MAZ; experiment: footprint; two MAZ sites; settings: tags: prepared as in Parks and Shenk 1996; label: 5' end label in luciferase coding region
Sp1 [4] = target: T1, Sp1; experiment: footprint; one Sp1 site (-18GC); settings: tags: Promega; label: 5' end label in luciferase coding region
Sp1 [5] = target: T1, Sp1; experiment: footprint; interaction completely blocked; settings: tags: Promega; label: 5' end label in luciferase coding region
Sp1 [6] = target: T1, Sp1; experiment: footprint; Sp1 footprint not altered; settings: tags: Promega; label: 5' end label in luciferase coding region

T1 sequence (P08047 2-785, one chain of several): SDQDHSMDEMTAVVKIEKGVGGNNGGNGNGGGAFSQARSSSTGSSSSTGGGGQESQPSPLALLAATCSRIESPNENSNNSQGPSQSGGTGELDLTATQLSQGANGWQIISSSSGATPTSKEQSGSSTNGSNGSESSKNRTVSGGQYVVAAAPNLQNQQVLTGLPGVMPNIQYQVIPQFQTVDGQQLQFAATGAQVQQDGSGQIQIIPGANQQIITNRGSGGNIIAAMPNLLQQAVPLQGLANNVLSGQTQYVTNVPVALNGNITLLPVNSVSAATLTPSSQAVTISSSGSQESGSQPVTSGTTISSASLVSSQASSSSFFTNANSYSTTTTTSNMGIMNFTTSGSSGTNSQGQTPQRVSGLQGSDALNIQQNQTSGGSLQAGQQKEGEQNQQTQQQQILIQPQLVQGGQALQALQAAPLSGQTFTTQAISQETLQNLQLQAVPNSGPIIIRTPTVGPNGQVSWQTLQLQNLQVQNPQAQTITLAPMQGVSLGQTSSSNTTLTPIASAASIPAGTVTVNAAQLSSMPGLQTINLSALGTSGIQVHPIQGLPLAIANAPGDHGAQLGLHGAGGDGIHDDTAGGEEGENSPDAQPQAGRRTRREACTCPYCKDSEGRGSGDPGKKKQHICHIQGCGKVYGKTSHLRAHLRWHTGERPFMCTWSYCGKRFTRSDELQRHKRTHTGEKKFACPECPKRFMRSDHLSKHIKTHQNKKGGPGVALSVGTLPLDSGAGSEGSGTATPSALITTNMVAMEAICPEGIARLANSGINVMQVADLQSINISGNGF

B1: minimal MLP M3 (-18GC and -36GC mutant) (dsDNA)
DNA 1: TGTTGTTGTTCTATAAAAGTGTGTGTGTGTGCGTTCGTCCTCACTCTCTTCC
DNA 2: GGAAGAGAGTGAGGACGAACGCACACACACACACTTTTATAGAACAACAACA
- binding result (Sp1 [1]): no binding
- binding result (MAZ [2]): no binding

B2: minimal MLP wild type (dsDNA)
DNA 1: TGAAGGGGGGCTATAAAAGGGGGTGGGGGCGCGTTCGTCCTCACTCTCTTCC
DNA 2: GGAAGAGAGTGAGGACGAACGCGCCCCCACCCCCTTTTATAGCCCCCCTTCA
- binding result (MAZ [3]): binds
- binding result (Sp1 [4]): binds

B3: minimal MLP M1 (-18GC mutant) (dsDNA)
DNA 1: TGAAGGGGGGCTATAAAAGTGTGTGTGTGTGTGTTCGTCCTCACTCTCTTCC
DNA 2: GGAAGAGAGTGAGGACGAACACACACACACACACTTTTATAGCCCCCCTTCA
- binding result (Sp1 [5]): no binding

B4: minimal MLP M2 (-36GC mutant) (dsDNA)
DNA 1: TGTTGTTGTTCTATAAAAGGGGGTGGGGGCGCGTTCGTCCTCACTCTCTTCC
DNA 2: GGAAGAGAGTGAGGACGAACGCGCCCCCACCCCCTTTTATAGAACAACAACA
- binding result (Sp1 [6]): binds
